{"source": "patent US20060287236A1", "binders": {"B1": {"name": "soluble rat FcRn heterodimer (receptor, part only; not given: light chain, UniProt P13599 23-291, looked up, part only)", "MHC heavy": "AEPRLPLMYHLAAVSDLSTGLPSFWATGWLGAQQYLTYNNLRQEADPCGAWIWENQVSWYWEKETTDLKSKEQLFLEAIRTLENQINGTFTLQGLLGCELAPDNSSLPTAVFALNGEEFMRFNPRTGNWSGEWPETDIVGNLWMKQPEAARKESEFLLTSCPERLLGHLERGRQNLEWKEPPSMRLKARPGNSGSSVLTCAAFSFYPPELKFRFLRNGLASGSGNCSTGPNGDGSFHAWSLLEVKRGDEHHYQCQVEHEGLAQPLTVDL"}}, "molecular_target": "endogenous peptides", "assay": "acid eluate of purified heterodimer, Edman pool sequencing"}
{"binder": "B1", "values": [{"measurement": "pmole of amino acids recovered from acid elution, cycle 1", "value": 5.9, "unit": "pmol"}, {"measurement": "pmole of amino acids recovered from acid elution, cycle 2", "value": 4.7, "unit": "pmol"}, {"measurement": "pmole of amino acids recovered from acid elution, cycle 3", "value": 0.7, "unit": "pmol"}, {"measurement": "pmole of amino acids recovered from acid elution, cycle 4", "value": 7.6, "unit": "pmol"}, {"measurement": "pmole of amino acids recovered from acid elution, cycle 5", "value": 0, "unit": "pmol"}, {"measurement": "pmole of amino acids recovered from acid elution, cycle 6", "value": 0, "unit": "pmol"}, {"measurement": "pmole of amino acids recovered from acid elution, cycle 7", "value": 0.2, "unit": "pmol"}, {"measurement": "pmole of amino acids recovered from acid elution, cycle 8", "value": 0.6, "unit": "pmol"}, {"measurement": "pmole of amino acids recovered from acid elution, cycle 9", "value": 9.5, "unit": "pmol"}, {"measurement": "pmole of amino acids recovered from acid elution, cycle 10", "value": 0.3, "unit": "pmol"}]}
